Reference: the supplement of paper PMC9170038

Tested on: MS2 coat protein
Assay: apparent KD of MS2 coat protein; higher = weaker reporter binding
Conditions: Eterna round: R107
Experimental: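 RNA-MaP round R107: designed RNA switches with theophylline, tryptophan, arginine or FMN aptamers are transcribed on-chip within common flanks. They are titrated with SNAP-549-labelled MS2 coat protein in RNA-MaP buffer (100 mM Tris pH 7.5, 80 mM KCl, 4 mM MgCl2), without ligand or with the indicated ligand. Median apparent KD per design.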

[1] = input ligand: theophylline 20 uM
[2] = input ligand: theophylline 2 mM
[3] = input ligand: tryptophan 2.4 mM

CCUCAAUAGACGGCCGCCACUGAGACAUGAGGAUACAUGAGGAUCACCCAUGUGGGUGUGUCACGCAGGACCGGGUCAAGACCCG [Tryp B SS t2]
apparent KD of MS2 coat protein (input ligand: arginine 13.2 mM): 183 nM
apparent KD of MS2 coat protein [1]: 497 nM
apparent KD of MS2 coat protein [2]: 794 nM

AACAUGAGGAUCACCCAUGUGUCCUCGAAACGAGGACCGGUACGGCCGCCACUCGAAAAGGUGUUGACGAAAAGUCAGCACCAAA [Mat - Exclusion - Trytophan A - D16]
apparent KD of MS2 coat protein (input ligand: arginine 13.2 mM): 129 nM
apparent KD of MS2 coat protein (input ligand: none): 264 nM
apparent KD of MS2 coat protein [1]: 451 nM
apparent KD of MS2 coat protein [2]: 451 nM
apparent KD of MS2 coat protein [3]: 820 nM

UCACAUGAGGAUCACCCAUGUACAACUGAAGGAGCGAGACAAAACUCAGGUAGGUCGCAGAAUAAACAAUAGCAUACGACAUGGG [Exclusion Arginine A GF 19]
apparent KD of MS2 coat protein (input ligand: arginine 13.2 mM): 44.6 nM
apparent KD of MS2 coat protein (input ligand: none): 31 nM
apparent KD of MS2 coat protein [1]: 43.1 nM
apparent KD of MS2 coat protein [2]: 26.3 nM
apparent KD of MS2 coat protein [3]: 27.7 nM

AUAACAUGAGGAUCACCCAUGUAAGCAGAUACCAGCUAGGAAACUAGCCCUUGGCAGCUGCAUAGUGAUCCAUAUAUCUGCUAAU [(M1)-(M2)-(T1)-(T2)-(M)'-(T)'_Design8]
apparent KD of MS2 coat protein (input ligand: arginine 13.2 mM): 40.6 nM
apparent KD of MS2 coat protein [1]: 80.5 nM
apparent KD of MS2 coat protein [3]: 59.2 nM

AGCACAUGAGGAUCACCCAUGUGUGGGUACCGAGGACCGGUACGGCCGCCACUCGCAGGACAUGAGGAUCACCCAUGUGCCGCCG [SSTA DOUBLE!!! :-D #7]
apparent KD of MS2 coat protein (input ligand: arginine 13.2 mM): 19.7 nM
apparent KD of MS2 coat protein (input ligand: none): 30.5 nM
apparent KD of MS2 coat protein [1]: 33.2 nM
apparent KD of MS2 coat protein [2]: 41.2 nM
apparent KD of MS2 coat protein [3]: 43.4 nM

GAUAGAACAAAAGUUUUAUCAGUGGGUGAACGAGGACCGGUACGGCCGCCACUCGGACAUGAGGAUCACCCAUGUCCAUGUGAAA [AstrosExyTryA#17]
apparent KD of MS2 coat protein (input ligand: arginine 13.2 mM): 12.6 nM
apparent KD of MS2 coat protein (input ligand: none): 18.1 nM
apparent KD of MS2 coat protein [1]: 17.1 nM
apparent KD of MS2 coat protein [2]: 19.5 nM
apparent KD of MS2 coat protein [3]: 43.9 nM

AGGGAAUGAAUAGAAUGAGAUGACACAGAAGGAGCGCCGAUUAAGGCAGGUAGGUCGCUGACAACAUGAGGAUCACCCAUGUUAA [#11 Same State - Arginine A]
apparent KD of MS2 coat protein (input ligand: arginine 13.2 mM): 8.73 nM
apparent KD of MS2 coat protein (input ligand: none): 17 nM
apparent KD of MS2 coat protein [1]: 14.1 nM
apparent KD of MS2 coat protein [2]: 17.5 nM
apparent KD of MS2 coat protein [3]: 20.6 nM

CGUCGAGACUGAAGGAGCGAGAUAACAACAUUGGGUCUCAACAUGAGGAUCACCCAUGUAUCUCAGGUAGGUCGCGGUGUCACCG [Exclusion Arginine B GF20]
apparent KD of MS2 coat protein (input ligand: arginine 13.2 mM): 137 nM
apparent KD of MS2 coat protein (input ligand: none): 330 nM
apparent KD of MS2 coat protein [1]: 302 nM
apparent KD of MS2 coat protein [2]: 484 nM
apparent KD of MS2 coat protein [3]: 298 nM

GUUGAGACCUCGGCCGCCACUCGCCAUGAGGAUCUCCCAUGUAACAUGAGGAUCACCCAUGUACUGAGGACCGGGAGGUCCUUGU [Same State Tryptophan B GF 16]
apparent KD of MS2 coat protein (input ligand: arginine 13.2 mM): 12 nM
apparent KD of MS2 coat protein [1]: 18.5 nM
apparent KD of MS2 coat protein [2]: 15.5 nM

AGUAUUGGAAACAGUACUAGUGAUCCGGUCCGAGGACCGGUACGGCCGCCACUCGAUUUAAAUAAACAUGAGGAUCACCCAUGUA [Ex Tryptophan A 14]
apparent KD of MS2 coat protein (input ligand: arginine 13.2 mM): 15.8 nM
apparent KD of MS2 coat protein [1]: 17.2 nM
apparent KD of MS2 coat protein [2]: 16.5 nM

AGAGUCUAGUCGGCCGCCACUCAUGUCCAAAGGACAUGAGGAUCACCCAUGUACCUAAGGUACAUGAGGACCGGGACUGGACUCA [Omei Tryp B SS C v5]
apparent KD of MS2 coat protein (input ligand: arginine 13.2 mM): 13.1 nM
apparent KD of MS2 coat protein (input ligand: none): 24.4 nM
apparent KD of MS2 coat protein [1]: 131 nM
apparent KD of MS2 coat protein [2]: 336 nM
apparent KD of MS2 coat protein [3]: 7.92 nM

GAUGGAAUAAGAGAUACCAGACACAAUUUAGCAUGUAUAUACAUGAGGAUCACCCAUGUAGUCCCUUGGCAGCUCUGGUUAGUGU [theeternabot_exclusion_MS2_Theo_B_48]
apparent KD of MS2 coat protein (input ligand: arginine 13.2 mM): 21.4 nM
apparent KD of MS2 coat protein [1]: 27.7 nM
apparent KD of MS2 coat protein [3]: 20.8 nM

CUCUGAGUGAGCAAUCACUCAGAGGCGGAUACCAGCGAGGUCCAUCGCCCUUGGCAGCCGAACAUGAGGAUCACCCAUGUCGGUA [#1 Same State - Theophylline A Attempt #22 (HarryS)]
apparent KD of MS2 coat protein (input ligand: arginine 13.2 mM): 9.29 nM
apparent KD of MS2 coat protein [1]: 13 nM
apparent KD of MS2 coat protein [3]: 11 nM

UUAAUUAUUGAAUCGUAUUGGUAUUAAGAACGAGGACCGGUACGGCCGCCACUCGUGAUAUACAUGAGGAUCACCCAUGUUAGCA [JR_Nu_SSTryptoA_Sub022]
apparent KD of MS2 coat protein (input ligand: arginine 13.2 mM): 15 nM
apparent KD of MS2 coat protein [1]: 18.6 nM
apparent KD of MS2 coat protein [2]: 18.1 nM

AGUAUCAGUGGAAGGAGCGUCGCGAAUGCCACAUGAGGAUCACCCAUGUCGCCUUGAGCGCGACAGGUAGGUCGCCACGGUAGGC [SS-ArgB3]
apparent KD of MS2 coat protein (input ligand: arginine 13.2 mM): 53.2 nM
apparent KD of MS2 coat protein (input ligand: none): 208 nM
apparent KD of MS2 coat protein [1]: 174 nM
apparent KD of MS2 coat protein [2]: 338 nM
apparent KD of MS2 coat protein [3]: 140 nM

AUUAACAUGAGGAUCACCCAUGUGGCCCACCGAGGACCGGUACGGCCGCCACUCGUCGGAAAGGCUAAAUUUAUGAAGUCCAAAA [theeternabot_sameState_MS2_Trp_A_40]
apparent KD of MS2 coat protein (input ligand: arginine 13.2 mM): 18.6 nM
apparent KD of MS2 coat protein [1]: 25.4 nM
apparent KD of MS2 coat protein [2]: 17 nM

AGCGCAGGUCCUGAUACCAGUGACAUGAGGAUCACCCAUGUCCGAUGGGCCUGCCUCUGACACCCUUGGCAGCAGGGCUUGUGCU [#14 Exclusion-TheophyllineB]
apparent KD of MS2 coat protein (input ligand: arginine 13.2 mM): 20 nM
apparent KD of MS2 coat protein [1]: 49.8 nM
apparent KD of MS2 coat protein [3]: 21.3 nM

UCUUUCUAUGUAGAUACCAGCAUGUUAUAUUUCUAAUGACAUGAGGAUCACCCAUGUAAAUGCCCUUGGCAGCUACAUUUUCUUU [SSTHB #4]
apparent KD of MS2 coat protein (input ligand: arginine 13.2 mM): 21.6 nM
apparent KD of MS2 coat protein [1]: 22.3 nM
apparent KD of MS2 coat protein [3]: 23.7 nM

AACUUCGCAUAGGAAAACUAUGUGAAGAAUCGAGGACCGGUACGGCCGCCACUCGUCCUCAACAUGAGGAUCACCCAUGUAAUAA [Mat - Exclusion - Trytophan A - D4]
apparent KD of MS2 coat protein (input ligand: arginine 13.2 mM): 22.1 nM
apparent KD of MS2 coat protein [1]: 25.4 nM
apparent KD of MS2 coat protein [2]: 22.6 nM
